Assay results: paper PMC3223026 (Journal of molecular biology, 2011)
Like-named read-outs stand apart in the source and are kept apart here.

B1: bacteriophage φ6 protein P1 (capsid shell), wild type (natural protein, UniProt P11126 1-769, looked up)
chain: MFNLKVKDLNGSARGLTQAFAIGELKNQLSVGALQLPLQFTRTFSASMTSELLWEVGKGNIDPVMYARLFFQYAQAGGALSVDELVNQFTEYHQSTACNPEIWRKLTAYITGSSNRAIKADAVGKVPPTAILEQLRTLAPSEHELFHHITTDFVCHVLSPLGFILPDAAYVYRVGRTATYPNFYALVDCVRASDLRRMLTALSSVDSKMLQATFKAKGALAPALISQHLANAATTAFERSRGNFDANAVVSSVLTILGRLWSPSTPKELDPSARLRNTNGIDQLRSNLALFIAYQDMVKQRGRAEVIFSDEELSSTIIPWFIEAMSEVSPFKLRPINETTSYIGQTSAIDHMGQPSHVVVYEDWQFAKEITAFTPVKLANNSNQRFLDVEPGISDRMSATLAPIGNTFAVSAFVKNRTAVYEAVSQRGTVNSNGAEMTLGFPSVVERDYALDRDPMVAIAALRTGIVDESLEARASNDLKRSMFNYYAAVMHYAVAHNPEVVVSEHQGVAAEQGSLYLVWNVRTELRIPVGYNAIEGGSIRTPEPLEAIAYNKPIQPSEVLQAKVLDLANHTTSIHIWPWHEASTEFAYEDAYSVTIRNKRYTAEVKEFELLGLGQRRERVRILKPTVAHAIIQMWYSWFVEDDRTLAAARRTSRDDAEKLAIDGRRMQNAVTLLRKIEMIGTTGIGASAVHLAQSRIVDQMAGRGLIDDSSDLHVGINRHRIRIWAGLAVLQMMGLLSRSEAEALTKVLGDSNALGMVVATTDIDPSL
B2: bacteriophage φ6 protein P1 with the E390A substitution (natural protein, UniProt P11126 1-769, looked up)
chain: MFNLKVKDLNGSARGLTQAFAIGELKNQLSVGALQLPLQFTRTFSASMTSELLWEVGKGNIDPVMYARLFFQYAQAGGALSVDELVNQFTEYHQSTACNPEIWRKLTAYITGSSNRAIKADAVGKVPPTAILEQLRTLAPSEHELFHHITTDFVCHVLSPLGFILPDAAYVYRVGRTATYPNFYALVDCVRASDLRRMLTALSSVDSKMLQATFKAKGALAPALISQHLANAATTAFERSRGNFDANAVVSSVLTILGRLWSPSTPKELDPSARLRNTNGIDQLRSNLALFIAYQDMVKQRGRAEVIFSDEELSSTIIPWFIEAMSEVSPFKLRPINETTSYIGQTSAIDHMGQPSHVVVYEDWQFAKEITAFTPVKLANNSNQRFLDVAPGISDRMSATLAPIGNTFAVSAFVKNRTAVYEAVSQRGTVNSNGAEMTLGFPSVVERDYALDRDPMVAIAALRTGIVDESLEARASNDLKRSMFNYYAAVMHYAVAHNPEVVVSEHQGVAAEQGSLYLVWNVRTELRIPVGYNAIEGGSIRTPEPLEAIAYNKPIQPSEVLQAKVLDLANHTTSIHIWPWHEASTEFAYEDAYSVTIRNKRYTAEVKEFELLGLGQRRERVRILKPTVAHAIIQMWYSWFVEDDRTLAAARRTSRDDAEKLAIDGRRMQNAVTLLRKIEMIGTTGIGASAVHLAQSRIVDQMAGRGLIDDSSDLHVGINRHRIRIWAGLAVLQMMGLLSRSEAEALTKVLGDSNALGMVVATTDIDPSL

Columns and labels:
Test in all cases: cryo-EM structure
cryo-EM structure [1] = target: the molecule itself
cryo-EM structure [2] = target: the molecule itself; remark: listed apart in the source
[3] = target: B2
[4] = target: B1

## B1
cryo-EM structure [1]
  binding result: binds

## B2
cryo-EM structure [2]
  binding result: binds

B3: bacteriophage φ6 protein P4 (packaging motor, packaging NTPase) (enzyme, UniProt P11125 1-332, looked up)
chain: MPIVVTQAHIDRVGIAADLLDASPVSLQVLGRPTAINTVVIKTYIAAVMELASKQGGSLAGVDIRPSVLLKDTAIFTKPKAKSADVESDVDVLDTGIYSVPGLARKPVTHRWPSEGIYSGVTALMGATGSGKSITLNEKLRPDVLIRWGEVAEAYDELDTAVHISTLDEMLIVCIGLGALGFNVAVDSVRPLLFRLKGAASAGGIVAVFYSLLTDISNLFTQYDCSVVMVVNPMVDAEKIEYVFGQVMASTVGAILCADGNVSRTMFRTNKGRIFNGAAPLAADTHMPSMDRPTSMKALDHTSIASVAPLERGSVDTDDRNSAPRRGANFSL
[3]
  binding result: binds
cryo-EM structure [1]
  binding result: binds
[4]
  binding result: binds

B4: bacteriophage φ6 protein P2 (RNA-dependent RNA polymerase) (enzyme, UniProt P11124 1-665, looked up)
chain: MPRRAPAFPLSDIKAQMLFANNIKAQQASKRSFKEGAIETYEGLLSVDPRFLSFKNELSRYLTDHFPANVDEYGRVYGNGVRTNFFGMRHMNGFPMIPATWPLASNLKKRADADLADGPVSERDNLLFRAAVRLMFSDLEPVPLKIRKGSSTCIPYFSNDMGTKIEIAERALEKAEEAGNLMLQGKFDDAYQLHQMGGAYYVVYRAQSTDAITLDPKTGKFVSKDRMVADFEYAVTGGEQGSLFAASKDASRLKEQYGIDVPDGFFCERRRTAMGGPFALNAPIMAVAQPVRNKIYSKYAYTFHHTTRLNKEEKVKEWSLCVATDVSDHDTFWPGWLRDLICDELLNMGYAPWWVKLFETSLKLPVYVGAPAPEQGHTLLGDPSNPDLEVGLSSGQGATDLMGTLLMSITYLVMQLDHTAPHLNSRIKDMPSACRFLDSYWQGHEEIRQISKSDDAILGWTKGRALVGGHRLFEMLKEGKVNPSPYMKISYEHGGAFLGDILLYDSRREPGSAIFVGNINSMLNNQFSPEYGVQSGVRDRSKRKRPFPGLAWASMKDTYGACPIYSDVLEAIERCWWNAFGESYRAYREDMLKRDTLELSRYVASMARQAGLAELTPIDLEVLADPNKLQYKWTEADVSANIHEVLMHGVSVEKTERFLRSVMPR
[3]
  binding result: binds
